Molecular target: T1, HPK1 intact citron homology domain fragment (C428-E821), untagged, Q92918-2
T1 chain: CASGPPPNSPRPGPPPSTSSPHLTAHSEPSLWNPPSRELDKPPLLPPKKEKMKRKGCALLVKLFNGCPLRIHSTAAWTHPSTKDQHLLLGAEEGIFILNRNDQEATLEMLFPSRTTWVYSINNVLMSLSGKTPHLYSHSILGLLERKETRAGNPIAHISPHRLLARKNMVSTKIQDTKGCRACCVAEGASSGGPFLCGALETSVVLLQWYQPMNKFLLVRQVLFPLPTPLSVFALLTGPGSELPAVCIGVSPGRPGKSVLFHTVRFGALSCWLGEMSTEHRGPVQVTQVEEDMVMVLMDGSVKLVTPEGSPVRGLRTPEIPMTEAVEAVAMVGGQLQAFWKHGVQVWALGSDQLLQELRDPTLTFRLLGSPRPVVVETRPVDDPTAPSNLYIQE
Assay: SPR
Conditions: chain shown with the change; left plot; plateau of the last (highest) of five successive CHD injections, about 800-900 s; CHD concentrations not given; read off a plot

- response (Response Units): 42
B1: HPK1 kinase domain wild type (D2-N293) S171A (protein)
chain: DVVDPDIFNRDPRDHYDLLQRLGGGTYGEVFKARDKVSGDLVALKMVKMEPDDDVSTLQKEILILKTCRHANIVAYHGSYLWLQKLWICMEFCGAGSLQDIYQVTGSLSELQISYVCREVLQGLAYLHSQKKIHRDIKGANILINDAGEVRLADFGISAQIGATLARRLAFIGTPYWMAPEVAAVALKGGYNELCDIWSLGITAIELAELQPPLFDVHPLRVLFLMTKSGYQPPRLKEKGKWSAAFHNFIKVTLTKSPKKRPSATKMLSHQLVSQPGLNRGLILDLLDKLKN
